Assay results taken from US20220249369.

Legend:
QARGGSK = system: T1, QARGGSK
T1 sequence: QARGGSK

KTTGGRIYGG = system: T2, KTTGGRIYGG
T2 sequence: KTTGGRIYGG

[1] = system: T3, CC6, 5FAM-KYLGRSYKV-K(CPQ2)-C
T3 sequence: KYLGRSYKVKC

[2] = system: T4, CC9, 5FAM-GLQRALEI-K(CPQ2)-k-C
T4 sequence: GLQRALEIKKC

Sequence of Plasmin (P00747 20-580): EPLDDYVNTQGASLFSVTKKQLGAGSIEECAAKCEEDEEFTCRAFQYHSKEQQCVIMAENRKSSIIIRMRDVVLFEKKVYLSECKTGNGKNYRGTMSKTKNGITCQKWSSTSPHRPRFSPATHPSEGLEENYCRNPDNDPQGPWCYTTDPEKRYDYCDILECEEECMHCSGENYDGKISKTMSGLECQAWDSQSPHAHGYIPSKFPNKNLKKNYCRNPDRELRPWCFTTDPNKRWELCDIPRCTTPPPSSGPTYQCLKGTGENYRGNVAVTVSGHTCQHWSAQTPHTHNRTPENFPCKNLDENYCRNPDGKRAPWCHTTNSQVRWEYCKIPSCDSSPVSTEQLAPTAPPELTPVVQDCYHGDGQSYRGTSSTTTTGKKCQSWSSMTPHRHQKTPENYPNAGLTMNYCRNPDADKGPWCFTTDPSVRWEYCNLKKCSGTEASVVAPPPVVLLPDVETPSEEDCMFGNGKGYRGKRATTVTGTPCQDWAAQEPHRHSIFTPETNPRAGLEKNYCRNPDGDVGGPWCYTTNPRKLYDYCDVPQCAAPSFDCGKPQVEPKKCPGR
Sequence of Plasmin (P00747 581-810): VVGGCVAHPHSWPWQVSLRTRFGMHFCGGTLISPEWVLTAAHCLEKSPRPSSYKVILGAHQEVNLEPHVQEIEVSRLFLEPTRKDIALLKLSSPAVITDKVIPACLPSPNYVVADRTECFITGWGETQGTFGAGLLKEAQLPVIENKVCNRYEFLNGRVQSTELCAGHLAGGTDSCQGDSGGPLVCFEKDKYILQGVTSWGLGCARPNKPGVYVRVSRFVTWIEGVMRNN

Substance | protease cleavage velocity (QARGGSK) | protease cleavage velocity (KTTGGRIYGG) | relative cleavage velocity (L-gate) [1] | relative cleavage velocity (state 1 probability) after the first U-gate [1] [%] | relative cleavage velocity (state 0 probability) after the first U-gate [2] [%] | relative cleavage velocity (state 0 probability) after the second U-gate (state 0 substrate in large molar excess) [2] [%]
Thrombin | thrombin cleaving two different peptide substrates (KTTGGRIYGG (SEQ ID NO:2) and QARGGSK (SEQ ID NO:3)) | thrombin cleaving two different peptide substrates (KTTGGRIYGG (SEQ ID NO:2) and QARGGSK (SEQ ID NO:3)) | adding substrate-1 (KYLGRSYKV (SEQ ID NO:5)) to control b0 (e.g., plasmin) and target bi (e.g., thrombin) at a concentration such that the relative cleavage velocities (rcv) were matched | – | – | –
Plasmin | – | – | adding substrate-1 (KYLGRSYKV (SEQ ID NO:5)) to control b0 (e.g., plasmin) and target bi (e.g., thrombin) at a concentration such that the relative cleavage velocities (rcv) were matched | 55 | 45 | 93
